Test results from the Immune Epitope Database (IEDB).

Assays:
HLA-B*18:01 [1] = assay: IEDB peptide-MHC binding, purified MHC/competitive/fluorescence; filed as Kd, often an IC50 or EC50 that approximates it; ≥ and ≤ were set here for values at or beyond the usual limits of such assays; conditions: source organism: Lechiguanas virus
HLA-B*39:01 = assay: as above; conditions: source organism: Lechiguanas virus
HLA-B*27:03 = assay: as above; conditions: source organism: Lechiguanas virus
HLA-B*51:01 = assay: as above; conditions: source organism: Lechiguanas virus
HLA-A*26:01 [2] = assay: as above; conditions: source organism: Lechiguanas virus
HLA-B*57:01 [3] = assay: as above; conditions: source organism: Lechiguanas virus
HLA-A*69:01 [4] = assay: as above; conditions: source organism: Lechiguanas virus
HLA-A*02:01 [5] = assay: as above; conditions: source organism: Lechiguanas virus
HLA-B*08:01 = assay: IEDB peptide-MHC binding, purified MHC/direct/fluorescence; filed as Kd, often an IC50 or EC50 that approximates it; ≥ and ≤ were set here for values at or beyond the usual limits of such assays; conditions: source organism: Rio Mamore hantavirus
HLA-A*02:16 = assay: as above
HLA-A*29:02 = assay: as above
HLA-A*02:11 = assay: as above
HLA-A*68:02 = assay: as above
HLA-A*02:12 = assay: as above
HLA-A*02:19 = assay: as above
HLA-A*24:03 = assay: as above; conditions: source organism: Limestone Canyon virus
HLA-A*02:03 = assay: as above
HLA-A*03:01 = assay: as above
HLA-B*07:02 = assay: IEDB peptide-MHC binding, purified MHC/competitive/fluorescence; ≥ and ≤ were set here for values at or beyond the usual limits of such assays; conditions: source organism: Zaire ebolavirus
HLA-B*46:01 [6] = assay: IEDB peptide-MHC binding, purified MHC/competitive/fluorescence; filed as Kd, often an IC50 or EC50 that approximates it; ≥ and ≤ were set here for values at or beyond the usual limits of such assays; conditions: source organism: Lechiguanas virus
HLA-A*26:01 [7] = assay: IEDB peptide-MHC binding, purified MHC/direct/fluorescence; filed as Kd, often an IC50 or EC50 that approximates it; ≥ and ≤ were set here for values at or beyond the usual limits of such assays; conditions: source organism: Orthohantavirus andesense
HLA-B*15:01 = assay: as above
HLA-A*01:01 = assay: as above; conditions: source organism: Yellow fever virus
HLA-B*18:01 [8] = assay: as above; conditions: source organism: Yellow fever virus
HLA-B*46:01 [9] = assay: as above; conditions: source organism: Yellow fever virus
HLA-B*27:05 = assay: as above; conditions: source organism: Yellow fever virus
HLA-A*31:01 = assay: as above; conditions: source organism: Yellow fever virus
HLA-B*58:01 = assay: as above; conditions: source organism: Yellow fever virus
HLA-B*57:01 [10] = assay: as above; conditions: source organism: Yellow fever virus
HLA-A*69:01 [11] = assay: as above; conditions: source organism: Yellow fever virus
HLA-B*44:02 = assay: as above; conditions: source organism: Yellow fever virus
HLA-B*40:01 = assay: as above; conditions: source organism: Yellow fever virus
HLA-B*48:01 = assay: as above; conditions: source organism: Yellow fever virus
HLA-A*02:01 [12] = assay: as above; conditions: source organism: Yellow fever virus
[13] = source organism: Limestone Canyon virus
[14] = source organism: Pergamino virus
[15] = source organism: Yellow fever virus

## KLKSVGKAY
HLA-B*18:01 [1]
  Kd: ≥ 20 µM
HLA-B*39:01
  Kd: ≥ 20 µM
HLA-B*27:03
  Kd: ≥ 20 µM
HLA-B*51:01
  Kd: ≥ 20 µM
HLA-A*26:01 [2]
  Kd: ≥ 20 µM
HLA-B*57:01 [3]
  Kd: ≥ 20 µM
HLA-A*69:01 [4]
  Kd: ≥ 20 µM
HLA-A*02:01 [5]
  Kd: ≥ 20 µM
HLA-B*08:01
  Kd: ≥ 20 µM
HLA-A*02:16; [13]
  Kd: ≥ 20 µM
HLA-A*29:02; [13]
  Kd: ≥ 20 µM
HLA-A*02:11; [13]
  Kd: ≥ 20 µM
HLA-A*68:02; [13]
  Kd: ≥ 20 µM
HLA-A*02:12; [13]
  Kd: ≥ 20 µM
HLA-A*02:19; [13]
  Kd: ≥ 20 µM
HLA-A*24:03
  Kd: ≥ 20 µM
HLA-A*02:03; [13]
  Kd: ≥ 20 µM
HLA-A*03:01; source organism: Rio Mamore hantavirus
  Kd: 0.536 µM

## TPSATTAAG
HLA-B*07:02
  IC50: ≥ 144 µM

## SCINGQCPY
HLA-B*18:01 [1]
  Kd: ≥ 20 µM
HLA-B*39:01
  Kd: ≥ 20 µM
HLA-B*46:01 [6]
  Kd: ≥ 20 µM
HLA-B*27:03
  Kd: ≥ 20 µM
HLA-B*51:01
  Kd: ≥ 20 µM
HLA-B*57:01 [3]
  Kd: ≥ 20 µM
HLA-A*69:01 [4]
  Kd: ≥ 20 µM
HLA-A*02:01 [5]
  Kd: ≥ 20 µM
HLA-A*02:16; [14]
  Kd: ≥ 20 µM
HLA-A*26:01 [7]
  Kd: 2.22 µM
HLA-A*02:11; [14]
  Kd: ≥ 20 µM
HLA-A*68:02; [14]
  Kd: ≥ 20 µM
HLA-A*02:12; [14]
  Kd: ≥ 20 µM
HLA-B*15:01; source organism: Orthohantavirus andesense
  Kd: 6 µM
HLA-A*02:19; [14]
  Kd: ≥ 20 µM
HLA-A*02:03; [14]
  Kd: ≥ 20 µM
HLA-A*03:01; [14]
  Kd: ≥ 20 µM

## PHAATIRVL
HLA-A*01:01
  Kd: ≥ 20 µM
HLA-B*18:01 [8]
  Kd: ≥ 20 µM
HLA-B*46:01 [9]
  Kd: ≥ 20 µM
HLA-B*27:05
  Kd: ≥ 20 µM
HLA-A*31:01
  Kd: ≥ 20 µM
HLA-A*29:02; [15]
  Kd: ≥ 20 µM
HLA-B*58:01
  Kd: ≥ 20 µM
HLA-B*57:01 [10]
  Kd: ≥ 20 µM
HLA-A*69:01 [11]
  Kd: ≥ 20 µM
HLA-B*44:02
  Kd: ≥ 20 µM
HLA-B*15:01; [15]
  Kd: ≥ 20 µM
HLA-B*40:01
  Kd: ≥ 20 µM
HLA-B*48:01
  Kd: ≥ 20 µM
HLA-A*02:01 [12]
  Kd: ≥ 20 µM
HLA-A*03:01; [15]
  Kd: ≥ 20 µM
